Biological target: SeMet-labeled MtMce4A_(39–140) (Mycobacterium tuberculosis H37Rv)
Experiment: crystal structure; SeMet-labeled protein, 7.5 mg ml^−1; 100 mM MES, 700 mM ammonium sulfate pH 6.0, 22°C; space group P6_(5), 3.6 Å, SAD phasing

SeMet-labeled MtMce4A_(39–140) (domain or fragment)
stoichiometry N: 2
